Patent US20240124607A1 (Merck Sharp & Dohme, published 2024)

T1: Human CEACAM5 (K398) (human, UniProt P06731 35-685, limits assumed)
T1 construct: also called K398 allele
T1 sequence: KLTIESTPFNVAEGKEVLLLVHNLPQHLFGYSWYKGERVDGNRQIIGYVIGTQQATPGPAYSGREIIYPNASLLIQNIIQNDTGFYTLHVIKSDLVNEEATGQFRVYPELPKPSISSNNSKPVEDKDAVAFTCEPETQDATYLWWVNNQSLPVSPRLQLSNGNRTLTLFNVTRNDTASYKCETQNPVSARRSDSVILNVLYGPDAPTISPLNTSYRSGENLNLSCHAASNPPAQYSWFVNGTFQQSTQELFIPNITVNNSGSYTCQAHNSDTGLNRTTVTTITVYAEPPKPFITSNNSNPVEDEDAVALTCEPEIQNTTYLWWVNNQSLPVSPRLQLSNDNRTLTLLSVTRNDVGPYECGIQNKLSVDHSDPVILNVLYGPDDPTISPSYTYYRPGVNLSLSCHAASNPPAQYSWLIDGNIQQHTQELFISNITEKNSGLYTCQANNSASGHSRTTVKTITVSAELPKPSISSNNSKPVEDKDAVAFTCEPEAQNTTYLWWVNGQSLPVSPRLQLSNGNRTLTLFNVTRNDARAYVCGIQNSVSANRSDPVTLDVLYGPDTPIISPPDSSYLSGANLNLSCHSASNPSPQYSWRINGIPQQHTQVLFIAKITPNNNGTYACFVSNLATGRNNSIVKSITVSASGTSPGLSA

T2: Human CEACAM5 I80V V83A I112V I113T (human, UniProt P06731 35-685, limits assumed)
T2 chain: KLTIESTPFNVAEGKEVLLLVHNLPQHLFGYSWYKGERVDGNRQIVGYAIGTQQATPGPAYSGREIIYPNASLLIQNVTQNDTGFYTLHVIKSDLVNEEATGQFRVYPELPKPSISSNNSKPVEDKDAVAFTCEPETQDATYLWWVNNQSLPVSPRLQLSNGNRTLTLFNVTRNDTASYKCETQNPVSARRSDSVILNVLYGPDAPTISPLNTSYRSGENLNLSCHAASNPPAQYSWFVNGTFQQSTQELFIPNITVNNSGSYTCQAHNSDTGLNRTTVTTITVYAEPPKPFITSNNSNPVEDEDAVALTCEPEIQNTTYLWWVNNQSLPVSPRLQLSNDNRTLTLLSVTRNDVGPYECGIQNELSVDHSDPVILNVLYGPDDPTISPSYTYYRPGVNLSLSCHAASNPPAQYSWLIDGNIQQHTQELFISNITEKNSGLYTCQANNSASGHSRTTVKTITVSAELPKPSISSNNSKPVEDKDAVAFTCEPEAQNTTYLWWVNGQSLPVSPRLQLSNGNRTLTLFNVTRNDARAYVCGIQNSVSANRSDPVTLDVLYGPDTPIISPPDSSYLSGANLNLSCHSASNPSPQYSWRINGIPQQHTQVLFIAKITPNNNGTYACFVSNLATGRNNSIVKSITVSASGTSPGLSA

T3: Human CEACAM5 V83A (human, UniProt P06731 35-685, limits assumed)
T3 sequence: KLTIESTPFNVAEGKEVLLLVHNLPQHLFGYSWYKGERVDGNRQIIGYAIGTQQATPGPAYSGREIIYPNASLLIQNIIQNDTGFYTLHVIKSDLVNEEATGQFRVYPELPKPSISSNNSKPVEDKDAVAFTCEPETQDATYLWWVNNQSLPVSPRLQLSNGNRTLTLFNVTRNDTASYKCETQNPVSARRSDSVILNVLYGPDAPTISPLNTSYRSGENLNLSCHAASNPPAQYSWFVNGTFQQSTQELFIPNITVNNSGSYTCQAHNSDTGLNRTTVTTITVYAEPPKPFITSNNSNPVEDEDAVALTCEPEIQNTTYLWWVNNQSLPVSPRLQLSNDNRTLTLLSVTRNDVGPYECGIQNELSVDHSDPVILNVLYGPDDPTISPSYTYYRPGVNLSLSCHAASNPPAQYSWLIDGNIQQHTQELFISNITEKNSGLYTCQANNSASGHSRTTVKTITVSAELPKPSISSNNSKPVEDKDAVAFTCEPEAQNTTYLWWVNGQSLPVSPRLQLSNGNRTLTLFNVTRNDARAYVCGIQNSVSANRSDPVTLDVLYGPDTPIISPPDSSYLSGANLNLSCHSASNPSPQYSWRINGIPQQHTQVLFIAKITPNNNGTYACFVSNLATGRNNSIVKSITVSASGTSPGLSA

T4: soluble mouse Fc-human NKG2D dimer (human, UniProt P26718 78-216, limits assumed)
T4 construct: also called NKG2D-mFc; human NKG2D fused to a mouse Fc
T4 sequence (looked up): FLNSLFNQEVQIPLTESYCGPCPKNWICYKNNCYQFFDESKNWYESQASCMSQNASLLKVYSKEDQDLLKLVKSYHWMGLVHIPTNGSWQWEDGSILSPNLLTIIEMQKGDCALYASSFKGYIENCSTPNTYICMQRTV

T5: Cyno NKG2D-mFc (cynomolgus monkey, UniProt P61252 78-216, limits assumed)
T5 construct: also called cynomolgus NKG2D fused to a mouse Fc
T5 sequence (looked up): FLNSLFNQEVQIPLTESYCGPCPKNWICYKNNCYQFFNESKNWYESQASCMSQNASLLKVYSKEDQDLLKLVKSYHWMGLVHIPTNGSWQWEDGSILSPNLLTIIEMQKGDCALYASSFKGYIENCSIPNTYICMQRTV


Assays:
[1] = target: T1, Human CEACAM5 (K398); experiment: SPR, 37C, pH 7.4; reference E398
[2] = target: T2, Human CEACAM5 I80V V83A I112V I113T; experiment: SPR, 37C, pH 7.4; reference E398
[3] = target: T3, Human CEACAM5 V83A; experiment: SPR, 37C, pH 7.4; reference E398
[4] = target: T4, soluble mouse Fc-human NKG2D dimer; experiment: SPR, NKG2D-mFc captured, 37C, pH 6.0
Protocol: (§1) Binding to NKG2D was assessed by SPR using a mouse Fc capture kit (Cytiva, #BR100838) immobilized onto a CM5 chip. Human and cynomolgus NKG2D fused to a mouse Fc were captured and AB0411, AB0466, or AB0621 was titrated from 600 nM.

[5] = target: T5, Cyno NKG2D-mFc; experiment: SPR, NKG2D-mFc captured, 37C, pH 6.0
Protocol: as §1

Row | KD/KD(Ref) [1] [fold] | KD/KD(Ref) [2] [fold] | KD/KD(Ref) [3] [fold] | Kd [4] [nM] | koff [4] [s⁻¹] | kon [4] [M⁻¹ s⁻¹] | Kd [5] [nM] | koff [5] [s⁻¹] | kon [5] [M⁻¹ s⁻¹] | Binder
1 | 0.9 | 8.5 | 9.3 | 480 | 0.12 | 240000 | 420 | 0.11 | 310000 | AB0466 F3' CEACAM5 TriNKET (bispecific antibody, human IgG1, kappa) not shown heavy: EVQLVESGGGLVKPGGSLRLSCAASGFTFSSYSMNWVRQAPGKGLEWVSSISSSSSYIYYADSVKGRFTISRDNAKNSLYLQMNSLRAEDTAVYYCARGAPIGAAAGWFDPWGQGTLVTVSSASTKGPSVFPLAPSSKSTSGGTAALGCLVKDYFPEPVTVSWNSGALTSGVHTFPAVLQSSGLYSLSSVVTVPSSSLGTQTYICNVNHKPSNTKVDKKVEPKSCDKTHTCPPCPAPELLGGPSVFLFPPKPKDTLMISRTPEVTCVVVDVSHEDPEVKFNWYVDGVEVHNAKTKPREEQYNSTYRVVSVLTVLHQDWLNGKEYKCKVSNKALPAPIEKTISKAKGQPREPQVCTLPPSRDELTENQVSLTCLVKGFYPSDIAVEWESNGQPENNYKTTPPVLDSDGSFFLYSWLTVDKSRWQQGNVFSCSVMHEALHNHYTQKSLSLSPG light: DIQMTQSPSSVSASVGDRVTITCRASQGISSWLAWYQQKPGKAPKLLIYAASSLQSGVPSRFSGSGSGTDFTLTISSLQPEDFATYYCQQGVSFPRTFGGGTKVEIKRTVAAPSVFIFPPSDEQLKSGTASVVCLLNNFYPREAKVQWKVDNALQSGNSQESVTEQDSKDSTYSLSSTLTLSKADYEKHKVYACEVTHQGLSSPVTKSFNRGEC
2 | 1.1 | 1.3 | 2 | 240 | 0.056 | 240000 | 300 | 0.045 | 150000 | AB0621 F3' CEACAM5 TriNKET (bispecific antibody, human IgG1, kappa) DIVMTQSPDSLAVSLGERATINCKSSHSLLYGNFQNNYLAWYQQKPGQPPKLLIYWASTRESGVPDRFSGSGSGTDFTLTISSLQAEDVAVYYCQQYYSYPYTFGCGTKLEIKGGGGSGGGGSGGGGSGGGGSQVQLVQSGAEVKKPGASVKVSCKASGYTFTAYTIHWVRQAPGQCLEWMGYINPSSGYTEYNQKFKDRTTLTADTSISTAYMELSRLRSDDTAVYYCTREGGLLWFDYWGQGTLVTVSSGSDKTHTCPPCPAPELLGGPSVFLFPPKPKDTLMISRTPEVTCVVVDVSHEDPEVKFNWYVDGVEVHNAKTKPREEQYNSTYRVVSVLTVLHQDWLNGKEYKCKVSNKALPAPIEKTISKAKGQPREPRVYTLPPCRDELTKNQVSLTCLVKGFYPSDIAVEWESNGQPENNYKTTPPVLVSDGSFTLYSKLTVDKSRWQQGNVFSCSVMHEALHNHYTQKSLSLSPG heavy: EVQLVESGGGLVKPGGSLRLSCAASGFTFSSYSMNWVRQAPGKGLEWVSSISSSSSYIYYADSVKGRFTISRDNAKNSLYLQMNSLRAEDTAVYYCARGAPIGAAAGWFDPWGQGTLVTVSSASTKGPSVFPLAPSSKSTSGGTAALGCLVKDYFPEPVTVSWNSGALTSGVHTFPAVLQSSGLYSLSSVVTVPSSSLGTQTYICNVNHKPSNTKVDKKVEPKSCDKTHTCPPCPAPELLGGPSVFLFPPKPKDTLMISRTPEVTCVVVDVSHEDPEVKFNWYVDGVEVHNAKTKPREEQYNSTYRVVSVLTVLHQDWLNGKEYKCKVSNKALPAPIEKTISKAKGQPREPQVCTLPPSRDELTENQVSLTCLVKGFYPSDIAVEWESNGQPENNYKTTPPVLDSDGSFFLYSWLTVDKSRWQQGNVFSCSVMHEALHNHYTQKSLSLSPG light: DIQMTQSPSSVSASVGDRVTITCRASQGISSWLAWYQQKPGKAPKLLIYAASSLQSGVPSRFSGSGSGTDFTLTISSLQPEDFATYYCQQGVSFPRTFGGGTKVEIKRTVAAPSVFIFPPSDEQLKSGTASVVCLLNNFYPREAKVQWKVDNALQSGNSQESVTEQDSKDSTYSLSSTLTLSKADYEKHKVYACEVTHQGLSSPVTKSFNRGEC
3 | 0.9 | 3.9 | 4.9 | 490 | 0.13 | 280000 | 500 | 0.14 | 270000 | AB0411 F3' CEACAM5 TriNKET (bispecific antibody, human IgG1, kappa) DIQLTQSPATLSVSPGERATLSCRASQSVSSSYLAWYQQKPGQAPRLLIYGASSRATGIPDRFSGSGSGTDFTLTISRLEPEDFAVYYCQQYNNWPLTFGCGTKVEIKGGGGSGGGGSGGGGSGGGGSQVQLVQSGGGLVQPGGSLRLSCAASGFTFTSYAMSWVRQAPGKCLEWVSAISGTGDSTFYADSVKGRFTFSRDNSKNTLYLQMNSLRAEDTAVYYCAKDLGWLQYGLFDYWGQGTLVTVSSGSDKTHTCPPCPAPELLGGPSVFLFPPKPKDTLMISRTPEVTCVVVDVSHEDPEVKFNWYVDGVEVHNAKTKPREEQYNSTYRVVSVLTVLHQDWLNGKEYKCKVSNKALPAPIEKTISKAKGQPREPRVYTLPPCRDELTKNQVSLTCLVKGFYPSDIAVEWESNGQPENNYKTTPPVLVSDGSFTLYSKLTVDKSRWQQGNVFSCSVMHEALHNHYTQKSLSLSPG heavy: EVQLVESGGGLVKPGGSLRLSCAASGFTFSSYSMNWVRQAPGKGLEWVSSISSSSSYIYYADSVKGRFTISRDNAKNSLYLQMNSLRAEDTAVYYCARGAPIGAAAGWFDPWGQGTLVTVSSASTKGPSVFPLAPSSKSTSGGTAALGCLVKDYFPEPVTVSWNSGALTSGVHTFPAVLQSSGLYSLSSVVTVPSSSLGTQTYICNVNHKPSNTKVDKKVEPKSCDKTHTCPPCPAPELLGGPSVFLFPPKPKDTLMISRTPEVTCVVVDVSHEDPEVKFNWYVDGVEVHNAKTKPREEQYNSTYRVVSVLTVLHQDWLNGKEYKCKVSNKALPAPIEKTISKAKGQPREPQVCTLPPSRDELTENQVSLTCLVKGFYPSDIAVEWESNGQPENNYKTTPPVLDSDGSFFLYSWLTVDKSRWQQGNVFSCSVMHEALHNHYTQKSLSLSPG light: DIQMTQSPSSVSASVGDRVTITCRASQGISSWLAWYQQKPGKAPKLLIYAASSLQSGVPSRFSGSGSGTDFTLTISSLQPEDFATYYCQQGVSFPRTFGGGTKVEIKRTVAAPSVFIFPPSDEQLKSGTASVVCLLNNFYPREAKVQWKVDNALQSGNSQESVTEQDSKDSTYSLSSTLTLSKADYEKHKVYACEVTHQGLSSPVTKSFNRGEC
